Test results: patent publication US20210072250A1 (Genentech, published 2021)

Tests used:
P6-Hpu [1] = biological target: T1, P6-Hpu; test: ELISA, unpurified hybridoma supernatant on peptide
T1 construct: Synthetic peptide

P6 = test: ELISA, unpurified hybridoma supernatant on peptide
[2] = biological target: T2, Flag-tagged human wild-type eIF5A (human, UniProt P63241 1-154); test: Western blot of lysates of 293 cells transfected with DHS-DOHH and flag-eIF5A WT or K50A
T2 construct: also called transfected wild-type eIF5A; WT eIF5A
T2 sequence (P63241 whole entry): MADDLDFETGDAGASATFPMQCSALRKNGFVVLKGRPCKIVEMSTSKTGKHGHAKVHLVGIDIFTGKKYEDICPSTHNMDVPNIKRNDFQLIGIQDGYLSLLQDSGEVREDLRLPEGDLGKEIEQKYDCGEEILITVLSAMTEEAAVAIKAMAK

[3] = biological target: T3, Flag-tagged human K50A eIF5A (human, UniProt P63241 1-154); test: as above
T3 construct: also called K50A variant; K50A mutant eIF5A
T3 sequence (P63241 whole entry K50A): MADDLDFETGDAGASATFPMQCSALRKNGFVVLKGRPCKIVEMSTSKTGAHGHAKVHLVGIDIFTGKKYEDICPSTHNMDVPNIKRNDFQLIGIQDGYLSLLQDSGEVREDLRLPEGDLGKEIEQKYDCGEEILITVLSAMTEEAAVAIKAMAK

endogenous eIF5A [4] = biological target: T4, endogenous eIF5A (human, UniProt P63241 2-154); test: as above
T4 construct: also called endogenous eIF5A protein of 293T cells
T4 sequence (P63241 2-154 limits assumed): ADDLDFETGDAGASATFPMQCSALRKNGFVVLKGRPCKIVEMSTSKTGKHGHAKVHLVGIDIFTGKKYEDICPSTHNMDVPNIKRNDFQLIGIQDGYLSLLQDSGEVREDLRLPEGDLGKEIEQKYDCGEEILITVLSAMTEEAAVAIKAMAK

P6-Hpu [5] = biological target: T1, P6-Hpu; test: SPR, ratio of KD values
P6-Hpu [6] = biological target: T1, P6-Hpu; test: SPR, Biacore T200, peptide captured, Fab flowed
endogenous eIF5A [7] = biological target: T4, endogenous eIF5A; test: immunoprecipitation from 293T cell lysate (diluted 1, 2, 4, 8-fold) with antibody on protein A beads, SDS-PAGE, Coomassie blue

B1: mAbHpu91 (antibody, V domains shown)
VH: QSVEESGGRLVTPGTPLTLTCTVSAFSLSTYTINWVRQAPGKGLEWIGDIWSDGNTYYANWAKGRFTISKTSTTVDLKITSPTTEDTATYFCARDSWDTSIYYGLDLWGQGTLVTVSS
VL: AIKMTQTPSSVSAAVGGTVTINCQASEDIKRYLAWYQQKPGQPPKLLIYAASKLASGVSSRFTGSGSGTEYTLTISGVQCDDAATYYCQQGYTSTNVNNAFGGGTEVVVK
notes: also called antibody Hpu91
B1: binds (P6-Hpu [1]); no binding (P6); binds [2]. B1: no binding [3]; binds (endogenous eIF5A [4]).

B2: FabHpu98.61 (Fab, V domains shown)
VH: QSVEESGGRLVTPGTPLTLTCTVSACSLYHCTMNWVRQAPGKGLEWIGDIYTDGNTYYANWAKGRFTISKTSTTVDLKITSPTTEDTATYFCARDSWDASSYYGLDLWGQGTLVTVSS
VL: AIKMTQTPSSVSAAVGGTVTINCQASEDIKRYLAWYQQKPGQPPKLLIYAASKLASGVSSRFKGSGSGTEYTLTISGVQCDDAATYYCQQGYTSSNVNNAFGGGTEVVVKG
In the case of B2, the “Fold improvement in KD over parent FabHpu98” value (P6-Hpu [5]) is reported as over 4.4 fold and the Kd (P6-Hpu [6]) is reported as 229 nM.

B3: mAbHpu24 (antibody, V domains shown)
VH: QEQLKESGGRLVAPGTPLTLTCTVSGFDISDYAMIWVRQAPGKGLEWIGIIYGGSNKLAYAKWAKGRFTISRTSTTVDLKITSPTTEDTATYFCARGYGSMDGYDRLNLWGQGTLVTVSS
VL: AAVLTQTPSPVSAAVGGTVTISCQSSETVYRGDWLSWFQKKPGQPPKLLIYDASYLASGVSSRFSGSGSGTHFTLTISGVQCDDAATYYCLGGYYDDADDTFGGGTEVVVK
notes: also called antibody Hpu24
B3: no binding (P6).

B4: FabHpu24 (Fab, V domains shown)
VH: QEQLKESGGRLVAPGTPLTLTCTVSGFDISDYAMIWVRQAPGKGLEWIGIIYGGSNKLAYAKWAKGRFTISRTSTTVDLKITSPTTEDTATYFCARGYGSMDGYDRLNLWGQGTLVTVSS
VL: AAVLTQTPSPVSAAVGGTVTISCQSSETVYRGDWLSWFQKKPGQPPKLLIYDASYLASGVSSRFSGSGSGTHFTLTISGVQCDDAATYYCLGGYYDDADDTFGGGTEVVVKG
Binder B4 has a Kd (P6-Hpu [6]) of 176 nM.

B5: FabHpu24.B (Fab, V domains shown)
VH: QEQLKESGGRLVAPGTPLTLTCTVSGFDISDYAMIWVRQAPGKGLEWIGIIYGVINDLAYAKWAKGRFTISRTSTTVDLKITSPTTEDTATYFCARGYGSMDGYDRLNLWGQGTLVTVSS
VL: AAVLTQTPSPVSAAVGGTVTISCRSRQRVYLGDWLSWFQKKPGQPPKLLIYDASFRGDGVSSRFSGSGSGTHFTLTISGVQCDDAATYYCLGGYYDDADDTFGGGTEVVVKG
In the case of B5, the “Fold improvement in KD over parent FabHpu24” value (P6-Hpu [5]) is reported as 2.9 fold and the Kd (P6-Hpu [6]) is reported as 61 nM.

B6: mAbHpu24.B (antibody, V domains shown)
VH: QEQLKESGGRLVAPGTPLTLTCTVSGFDISDYAMIWVRQAPGKGLEWIGIIYGVINDLAYAKWAKGRFTISRTSTTVDLKITSPTTEDTATYFCARGYGSMDGYDRLNLWGQGTLVTVSS
VL: AAVLTQTPSPVSAAVGGTVTISCRSRQRVYLGDWLSWFQKKPGQPPKLLIYDASFRGDGVSSRFSGSGSGTHFTLTISGVQCDDAATYYCLGGYYDDADDTFGGGTEVVVK
notes: also called antibody Hpu24.B
B6: binds (endogenous eIF5A [7]).
